Source: the RNAGym collection of RNA variant scans (doi:10.7554/elife.80360)

B1: Hairpin Ribozyme (parent)
chain: GUCCUCUUUCACGUGCGCGUGAAAGAGAGAAGUGAACCAGAGAAACACACGUUGUGGUAUAUUACCUGGUA

Variants of: B1
Test: self-cleavage, relative activity (ratio to wild type); higher = more cleavage; co-transcriptional

| Variant | self-cleavage |
| --- | --- |
| GUCCUCUUUCACGUGCGCGUGAAAGAGAGAAGUGAACCAGAGAAACACACGUUGUGGUAUAUUACAUGGGA [C66A U70G] | 0.176 |
| GUCCUCUUUCACGUGCGCGUGAAAGAGAGAAGUGAACCAGAGAAACACACGUUGUGGUAUAUUACAUGGCA [C66A U70C] | 0.305 |
| GUCCUCUUUCACGUGCGCGUGAAAGAGAGAAGUGAACCAGAGAAACACACGUUGUGGUAUAUUACCCGCUA [U67C G69C] | 0.188 |
| GUCCUCUUUCACGUGCGCGUGAAAGAGAGAAGUGAACCAGAGAAACACACGUUGUGGUAUAUUACCGAGUA [U67G G68A] | 0.138 |
| GUCCUCUUUCACGUGCGCGUGAAAGAGAGAAGUGAACCAGAGAAACACACGUUGUGGUAUAUUUCCGGGUA [A64U U67G] | 0.13 |
| GUCCUCUUUCACGUGCGCGUGAAAGAGAGAAGUGAACCAGAGAAACACACGUUGUGGUAUAUUACCCGGUG [U67C A71G] | 0.132 |
| GUCCUCUUUCACGUGCGCGUGAAAGAGAGAAGUGAACCAGAGAAACACACGUUGUGGUAUAUUACCCGGUC [U67C A71C] | 0.359 |
| GUCCUCUUUCACGUGCGCGUGAAAGAGAGAAGUGAACCAGAGAAACACACGUUGUGGUAUAUUACGUGCUA [C66G G69C] | 0.145 |
| GUCCUCUUUCACGUGCGCGUGAAAGAGAGAAGUGAACCAGAGAAACACACGUUGUGGUAUAUUACGUGUUA [C66G G69U] | 0.0961 |
| GUCCUCUUUCACGUGCGCGUGAAAGAGAGAAGUGAACCAGAGAAACACACGUUGUGGUAUAUUACCGGUUA [U67G G69U] | 0.165 |
| GUCCUCUUUCACGUGCGCGUGAAAGAGAGAAGUGAACCAGAGAAACACACGUUGUGGUAUAUUACCGGCUA [U67G G69C] | 0.13 |
| GUCCUCUUUCACGUGCGCGUGAAAGAGAGAAGUGAACCAGAGAAACACACGUUGUGGUAUAUUAUCAGGUA [C65U U67A] | 0.309 |
| GUCCUCUUUCACGUGCGCGUGAAAGAGAGAAGUGAACCAGAGAAACACACGUUGUGGUAUAUUACUAGGUA [C66U U67A] | 0.162 |
| GUCCUCUUUCACGUGCGCGUGAAAGAGAGAAGUGAACCAGAGAAACACACGUUGUGGUAUAUUACACGGUA [C66A U67C] | 0.159 |
| GUCCUCUUUCACGUGCGCGUGAAAGAGAGAAGUGAACCAGAGAAACACACGUUGUGGUAUAUUACAUAGUA [C66A G68A] | 0.126 |
| GUCCUCUUUCACGUGCGCGUGAAAGAGAGAAGUGAACCAGAGAAACACACGUUGUGGUAUAUUUCCUCGUA [A64U G68C] | 0.213 |
| GUCCUCUUUCACGUGCGCGUGAAAGAGAGAAGUGAACCAGAGAAACACACGUUGUGGUAUAUUAGCUGGUU [C65G A71U] | 0.219 |
| GUCCUCUUUCACGUGCGCGUGAAAGAGAGAAGUGAACCAGAGAAACACACGUUGUGGUAUAUUAGCUGGUC [C65G A71C] | 0.697 |
| GUCCUCUUUCACGUGCGCGUGAAAGAGAGAAGUGAACCAGAGAAACACACGUUGUGGUAUAUUAGCUGGUG [C65G A71G] | 0.187 |

| Variant | self-cleavage |
| --- | --- |
| GUCCUCUUUCACGUGCGCGUGAAAGAGAGAAGUGAACCAGAGAAACACACGUUGUGGUAUAUUACCGGGUA [U67G] | 0.28 |
| GUCCUCUUUCACGUGCGCGUGAAAGAGAGAAGUGAACCAGAGAAACACACGUUGUGGUAUAUUACCCGGUA [U67C] | 0.227 |
| GUCCUCUUUCACGUGCGCGUGAAAGAGAGAAGUGAACCAGAGAAACACACGUUGUGGUAUAUUACCAGGUA [U67A] | 0.229 |
| GUCCUCUUUCACGUGCGCGUGAAAGAGAGAAGUGAACCAGAGAAACACACGUUGUGGUAUAUUCCGUGGUA [A64C C66G] | 0.084 |
| GUCCUCUUUCACGUGCGCGUGAAAGAGAGAAGUGAACCAGAGAAACACACGUUGUGGUAUAUUCCAUGGUA [A64C C66A] | 0.0503 |
| GUCCUCUUUCACGUGCGCGUGAAAGAGAGAAGUGAACCAGAGAAACACACGUUGUGGUAUAUUCCUUGGUA [A64C C66U] | 0.27 |
| GUCCUCUUUCACGUGCGCGUGAAAGAGAGAAGUGAACCAGAGAAACACACGUUGUGGUAUAUUCCCUGGUG [A64C A71G] | 0.266 |
| GUCCUCUUUCACGUGCGCGUGAAAGAGAGAAGUGAACCAGAGAAACACACGUUGUGGUAUAUUACUUGGUU [C66U A71U] | 0.417 |
| GUCCUCUUUCACGUGCGCGUGAAAGAGAGAAGUGAACCAGAGAAACACACGUUGUGGUAUAUUACUUGGUG [C66U A71G] | 0.484 |
| GUCCUCUUUCACGUGCGCGUGAAAGAGAGAAGUGAACCAGAGAAACACACGUUGUGGUAUAUUAUCUAGUA [C65U G68A] | 0.249 |
| GUCCUCUUUCACGUGCGCGUGAAAGAGAGAAGUGAACCAGAGAAACACACGUUGUGGUAUAUUGCCUGGGA [A64G U70G] | 0.47 |
| GUCCUCUUUCACGUGCGCGUGAAAGAGAGAAGUGAACCAGAGAAACACACGUUGUGGUAUAUUGCCUGGAA [A64G U70A] | 0.597 |
| GUCCUCUUUCACGUGCGCGUGAAAGAGAGAAGUGAACCAGAGAAACACACGUUGUGGUAUAUUAUCUGGCA [C65U U70C] | 0.111 |
| GUCCUCUUUCACGUGCGCGUGAAAGAGAGAAGUGAACCAGAGAAACACACGUUGUGGUAUAUUAUCUGGGA [C65U U70G] | 0.148 |
| GUCCUCUUUCACGUGCGCGUGAAAGAGAGAAGUGAACCAGAGAAACACACGUUGUGGUAUAUUUCCUGGAA [A64U U70A] | 0.257 |
| GUCCUCUUUCACGUGCGCGUGAAAGAGAGAAGUGAACCAGAGAAACACACGUUGUGGUAUAUUAGCGGGUA [C65G U67G] | 0.0652 |
| GUCCUCUUUCACGUGCGCGUGAAAGAGAGAAGUGAACCAGAGAAACACACGUUGUGGUAUAUUAGCUGGCA [C65G U70C] | 0.189 |
| GUCCUCUUUCACGUGCGCGUGAAAGAGAGAAGUGAACCAGAGAAACACACGUUGUGGUAUAUUAGCUGGGA [C65G U70G] | 0.19 |
| GUCCUCUUUCACGUGCGCGUGAAAGAGAGAAGUGAACCAGAGAAACACACGUUGUGGUAUAUUCGCUGGUA [A64C C65G] | 0.161 |
